This is an account of results in patent publication US20260231954A1, “PESTICIDAL ENZYMES FOR USE ON NEMATODES, INSECTS, AND MOLLUSKS” (priority 2023, published 2026).

For assay [1], the system named is Diamondback moth (Plutella xylostella). Briefly: Diet-surface overlay (DSO) bioassay on Diamondback moth. Type of assay: in vivo. To be noted: 7 days. On the procedure:
(§1) Diet-surface overlay bioassays are conducted with artificial diet mixes without antibiotics in 1.5 cm^2 cell bioassay trays(s). Artificial diets are commercially available from Southland Products Inc. Diets were prepared by dispersing 0.5 mL of molten diet to each 1.5 cm^2 cell. After solidification, 0.1 mL enzyme treatments were dispersed on top of diet in each cell and the tray was gently rocked in an orbital shaker to spread the liquid uniformly over the diet surface. Trays were placed under clean airflow until the surface of each cell was uniformly dried. One or two 16-cell sections were used per treatment (the number in larvae treated was 16 or 32).
(§2) One healthy first instar larva was placed into each treatment cell, each 16-cell section was covered with a re-sealable lid and incubated at 27° C. and light-dark period of 16:8 hrs. After 7 days, and according to the species, the number of individuals in the following developmental categories was recorded.
(§3) Diamondback moth (Plutella xylostella): Dead Larva (lack of movement), Larva Stage I (≤50% relative size), Larva Stage II (100% relative size, full size), Early Pupa (light green color), Late Pupa (light-dark brown color), and Adult.
(§4) Negative/untreated controls were treated with filtered water and positive controls were treated with lethal doses of Bacillus thuringiensis subsp. Kurstaki (Btk) spores at 1000 ppm.

For assay [2], the system named is Btk resistant Diamondback moth. As to the kind of experiment: Diet-surface overlay (DSO) bioassay on Btk resistant Diamondback moth. Format: in vivo, Plutella xylostella. To be noted: 7 days. On the procedure:
as §1, §2, §3, §4
However, both neutral proteases reduced the number of individuals reaching adult stage.
The effect of lipase (10× enzyme rate) and free lipases were tested on a Diamondback Moth Btk resistant strain. Free Lipases from Burkholderia cepacia (Bc) and Pseudomonas fluorescens (Pf) were tested along with Lipase (SEQ ID NO: 76) and the results are shown below in Table 45.

Assay [3] relates to soybean cyst nematode (SCN, Heterodera glycines). Briefly: Soybean cyst nematode reproduction on soybean after seed treatment, controlled environment (cysts per gram of root tissue or per plant). As to conditions: for % Comparison to Control (figure in parentheses): change vs base control; for Average cysts per g of root tissue: free enzyme seed treatment. Format: in vivo.
Setting [4] is: Table 44, number of individuals, n = 16.
Setting [5] is: Table 45, number of individuals, n = 32.

B1: Lipase (SEQ ID NO: 76): Recombinant lipase from Bacillus thuringiensis; Bacillus thuringiensis Lipase (Lip1) (protein, listed as Bacillus thuringiensis)
chain: MRLMRRCVALLIVFFIMAPMISTNVRAGVVKELKTGFPDQEVFTPGEWFLGQKPANYDENKPPILFVQGRNGNADSWYGKTVYHDINDMYDYALKAGYQTVFIQLYDAAGKGSASQWDNGKLLAQKLEEIYNHFGKKVNIVAHSKGGIDTQAALVGYGANRFVGNVITLATPHHGSNLADLSYSWWAGWLASILGQKDDGTYSLQMGEMAKFRSTIDNNPAAKLNRYYTVTGTSWGPVFSALSMGGLYLSSYGSNDGLVNECSAKLPYGTHLFTDSRFDHDNIRKGSAVFARIEPYLRTANVPVPALVASSTSSNENIEQLNTTSNQSILGGELPQNQWIEQTVAVDKKAEGIVSILTASSDVEVQMISPKGKVYTNKDSVITTGEGESFFGGATIRTFKFDKMDVGEWKVKMMTKQSKDAYLVVSDYKTGAPFVLQMPTKVKANKSEYKLKKSPVAPEMKGDLSITVRVVNKEGKLVSEFNELQNVNNNTFTGALKNIKQPGVYNVTMDIKGMNKEGKSYSRTIVKSVYVEK
modifications: Lipase (Lip1 H192)
Consider B1, for which the “Effect on survival and development of Diamondback moth (in words)” value in assay [1] (DSO bioassay) is listed as “delayed larva-pupa development”. Moreover, the “Dead Larva” value in assay [1] (Table 44, lipases, number of individuals, n = 16) is given as 0. In addition, in assay [1] (setting [4]), the Adult was found to be 0, the “Early Pupa” value is 3, the “Larva Stage I” value was determined as 0 and the “Larva Stage II” value is listed as 0. Besides, in assay [1] (setting [4]), the “Late Pupa” value is on record as 13. In assay [2] (DSO bioassay), the “Effect on survival and development of Btk resistant Diamondback moth (in words)” value is given as “clear delay of larva-pupa development”. In addition, in assay [2] (Table 45, lipases, number of individuals, n = 32, Btk resistant strain per text), the “Dead Larva” value was 1. In addition, in assay [2] (setting [5]), the Adult is reported as 0, the “Early Pupa” value worked out at 10, the “Larva Stage I” value came out at 9 and the “Larva Stage II” value was determined as 12. For the same molecule, the “Late Pupa” value in assay [2] (setting [5]) is 0.

B2: Bacillus thuringiensis Lipase 2 (SEQ ID NO: 251): Bacillus thuringiensis Lipase 2 (protein, listed as Bacillus thuringiensis)
chain: EVVKELGKGFPDTEVFTPGEWFLGQKPANYDENKPPILFVQGRNGNADSWYGKTVYHDINDMYDYALKAGYQTVFIQLYDAAGKGSASQWDNGKLLAQKLEEIYNYFGKKVNIVAHSKGGIDTQAALVEYGANRFVGNVITLATPHHGSNLADLSYSWWAGWLASILGQKDDGTYSLQIGEMAKFRSIIDNNPAAKLNRYYTATGTSWGPTFSALSMGGLYLSSYGSNDGLVNEWSAKLSYGTHLFTDSRFDHDNIRKGSAVFARIEPYLRTTNVGLPALVASSTSSNEDLEQLNTTSNQNILGGELPQNQWIEQSISVDKKAEGIVSVLTASSDVEVQMVSPKGKIYANKDSAITTGEGESFFNRATIRTFKFDKLEVGEWKIKMMAKQSKDAYLVVSDYKDDAPFVLRMPTKVKINKPEYKLKKSPVAPEMKGDLSITVRVVNKEGKLVSEFNELQNVNTNTFTGALKDIKQPGVYNVTMDIKGMNKEGKPYNRTIVKSVYVEK
In the case of B2, in assay [3] (Table 20), the “% Comparison to Control (figure in parentheses)” value (from here on “% Comparison to Control”) was −43%. Also, the “Average cysts per g of root tissue” value in assay [3] (Table 20, soybean 2830E3) is reported as 264.3 cysts per g of root tissue.

B3: Collagenase B (SEQ ID NO: 208): Bacillus pumulis Collagenase B (ColB) (protein, listed as Bacillus pumulis, listed as Bacillus pumilus)
chain: IVNGKRVITKKPELLAPAGNLEKLKIAVHYGADAVFIGGQEYGLRSNADNFTIEEIAEGVEFAKKYGAKIYVTTNIFAHNENMDGLEDYLKALGDANVAGIIVADPLIIETCRRVAPNVEVHLSTQQSLSNWKAVQFWKEEGLDRVVLARETSALEIREMKEKVDIEIESFIHGAMCIAYSGRCVLSNHMTARDSNRGGCCQSCRWDYDLYQTDGANAVALYGEEDAPFAMSPKDLKLIESIPKMIEMGIDSLKIEGRMKSIHYVATVVSVYRKVIDAYCADPENFVIQKEWLEELDKCANRDTATAFFEGTPGYEEQMFGEHAKKTTYDFVGLVLNYDEDTQMVTLQQRNFFKKGDEVEFFGPEIENFTHTIETIWDEDGNELDAARHPLQIVKFKLDKKIYPSNMMRKGK
modifications: Collagenase B (ColB)
B3: in assay [3] (Table 22), the “% Comparison to Control” value is −85%. Further, in assay [3] (Table 22, soybean 2830E3), the “Average cysts per g of root tissue” value is 70.9 cysts per g of root tissue.

B4: Bacillus thuringiensis Lipase 1 (SEQ ID NO: 250): Bacillus thuringiensis Lipase 1 (protein, listed as Bacillus thuringiensis)
chain: YGFVSGVNDVLNPKASNLIKKTDVVAKEKKKTGTLQIVSLGDSLTRGVGDKEGIGYVGRMKEDLQKDYKQKIALTNLAVSGAKMPDLLKQIESNGAQYSIKQADVIVLTIGGNDLFPGWESLGKIDLETYRPDTETFQNEAKKIIEEIRKLNTDSPIFWLGLYNPFEDVEDLKGSSNIVVDWNASLEKLALNDKNVYITPTFDLFQNRGKDLLYSDHFHPNEVGYTYMAERLVQNVVSKLKLEQGGVK
In the case of B4, the “% Comparison to Control” value in assay [3] (Table 19) is −25%. The “Average cysts per g of root tissue” value in assay [3] (Table 19, soybean 2830E3) was 332.0 cysts per g of root tissue.

B5: Chitinase C (SEQ ID NO: 249): Chitinase C (protein, listed as Bacillus thuringiensis)
chain: DSPKQSQKIVGYFPSWGVYGRNYQVADIDASKLTHLNYAFADICWKGKHGNPSTHPDNPNKQTWNCKESGVPLQNKEVPNGTLVLGEPWADVTKSYPGSGTTWEDCDKYARCGNFGELKRLKAKYPHLKTIISVGGWTWSNRFSDMAADEKTRKVFAESTVAFLRAYGFDGVDLDWEYPGVETIPGGSYRPEDKQNFTLLLQDVRNALNKAGAEDGKQYLLTIASGASQRYADHTELKKISQILDWINIMTYDFHGGWEATSNHNAALYKDPNDPAANTNFYVDGAIDVYTNEGVPVDKLVLGVPFYGRGWKSCGKENNGQYQPCKPGSDGKLASKGTWDDYSTGDTGVYDYGDLTANYVNKNGFVRYWNDTAKVPYLYNATTGTFISYDDNESMKYKTDYIKTKGLSGAMFWELSGDCRTSPKYSCSGPKLLDTLVKELLGGPINQKDTEPPTNVKNIIVTNKTSSSVQLSWTASTDNVGVTEYEITAGEEKWSATTNSITIKNLKPNTEYTFSVIAKDASGNKSHPTALTVKTDEANTTPPDGNGTATFSVTSNWGSGYNFSIIIKNNGTIPIKNWKLEFDYSGNLTQVWDSKISSKTNNHYVITNAGWNGEIPPGGSITIGGAGTGNPAELLNAVISEN
With B5, in assay [3] (Table 18), the “% Comparison to Control” value was −22% and the “Average cysts per g of root tissue” value is 45.7 cysts per g of root tissue.
